Reference: paper PMC3937055

Target: caveolin, endogenous in mouse hippocampal primary neurons (mouse (endogenous in hippocampal primary neurons)) (UniProt P49817)
Experiment: co-IP; competition: synthetic Tat peptides incubated with living hippocampal primary neurons for 45 min before lysis; anti-caveolin immunoprecipitate blotted for mGlu1 receptor, band intensity normalised to control (n=3)

Chain of UniProt P49817 (P49817 whole entry): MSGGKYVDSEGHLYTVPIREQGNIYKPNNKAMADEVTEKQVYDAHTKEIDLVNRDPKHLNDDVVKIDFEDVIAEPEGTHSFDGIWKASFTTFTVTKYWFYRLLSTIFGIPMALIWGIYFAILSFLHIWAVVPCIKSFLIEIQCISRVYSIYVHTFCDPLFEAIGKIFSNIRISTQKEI

Substance: Tat-blocking peptide (Tat peptide fused with caveolin binding site of mGlu1α receptor)
- mGlu1α receptor co-precipitated with caveolin in the presence of the peptide, % of control: 73.3 % of control
